Experimental data as given in article PMC10705379 (bioRxiv, 2023).
Substitutions are numbered along the chain they refer to. Names and notes keep the numbering of the source.

T1: MBP-Epe1 (S. pombe, UniProt O94603 1-948)
T1 sequence: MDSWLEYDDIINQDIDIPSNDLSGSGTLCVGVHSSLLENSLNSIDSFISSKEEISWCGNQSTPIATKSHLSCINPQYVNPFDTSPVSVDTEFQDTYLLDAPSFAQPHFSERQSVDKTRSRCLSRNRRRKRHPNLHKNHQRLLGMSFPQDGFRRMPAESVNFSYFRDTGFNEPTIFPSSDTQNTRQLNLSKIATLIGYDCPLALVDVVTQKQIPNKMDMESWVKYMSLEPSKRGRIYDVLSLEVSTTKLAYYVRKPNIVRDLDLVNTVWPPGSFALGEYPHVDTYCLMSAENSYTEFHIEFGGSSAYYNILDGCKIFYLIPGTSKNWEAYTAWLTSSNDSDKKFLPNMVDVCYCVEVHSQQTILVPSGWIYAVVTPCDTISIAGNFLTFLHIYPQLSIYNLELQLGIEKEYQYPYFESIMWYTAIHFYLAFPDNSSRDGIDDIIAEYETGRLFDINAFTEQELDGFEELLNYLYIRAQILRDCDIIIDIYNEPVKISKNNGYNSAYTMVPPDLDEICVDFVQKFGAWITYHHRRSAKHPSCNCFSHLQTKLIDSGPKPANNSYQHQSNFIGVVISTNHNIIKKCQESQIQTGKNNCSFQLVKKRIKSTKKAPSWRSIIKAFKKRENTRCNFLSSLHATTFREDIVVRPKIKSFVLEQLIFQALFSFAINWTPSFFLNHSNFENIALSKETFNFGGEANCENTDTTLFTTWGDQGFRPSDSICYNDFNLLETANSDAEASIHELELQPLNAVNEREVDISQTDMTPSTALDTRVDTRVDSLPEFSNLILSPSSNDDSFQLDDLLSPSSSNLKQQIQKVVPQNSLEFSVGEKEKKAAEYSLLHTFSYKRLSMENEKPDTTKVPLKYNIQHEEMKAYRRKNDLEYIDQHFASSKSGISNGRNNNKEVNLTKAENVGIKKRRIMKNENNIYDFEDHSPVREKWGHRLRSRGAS

B1: Swi6-WT (recombinant, full length) (natural protein)
chain: MKKGGVRSYRRSSTSKRSVIDDDSEPELPSMTKEAIASHKADSGSSDNEVESDHESKSSSKKLKENAKEEEGGEEEEEDEYVVEKVLKHRMARKGGGYEYLLKWEGYDDPSDNTWSSEADCSGCKQLIEAYWNEHGGRPEPSKRKRTARPKKPEAKEPSPKSRKTDEDKHDKDSNEKIEDVNEKTIKFADKSQEEFNENGPPSGQPNGHIESDNESKSPSQKESNESEDIQIAETPSNVTPKKKPSPEVPKLPDNRELTVKQVENYDSWEDLVSSIDTIERKDDGTLEIYLTWKNGAISHHPSTITNKKCPQKMLQFYESHLTFRENE
B2: FLAG-Swi6-WT (recombinant) (natural protein)
chain: B1 chain
B3: Swi6-T278K (recombinant, full length) (natural protein)
chain: B1 chain with T278K
B4: Swi6-T278Y (recombinant, full length) (natural protein)
chain: B1 chain with T278Y

Legend:
[1] = tested on: Swi6-WT (Schizosaccharomyces pombe); experiment: EMSA; details: histone H3K9me3
H3K9me3 mononucleosomes = experiment: native gel or EMSA
mass photometry = biological target: the molecule itself; experiment: mass photometry
MBP-Epe1 = biological target: T1, MBP-Epe1; experiment: pull-down

Molecule	Kd (H3K9me3 mononucleosomes)	specificity for H3K9me3 over H3K9me0 mononucleosomes (H3K9me3 mononucleosomes)	Kd (mass photometry)	stoichiometry N (mass photometry)	other results
H3K9me3 mononucleosome (Epicypher 16-0315-20)					Kd [1]: 50 nM
Swi6-T278Y (recombinant, full length) (from UniProt P40381 1-328) (natural protein)	39 nM	2.3 fold			
B1	50 nM	2.4 fold	0.38 nM	2	
B2					binding result (MBP-Epe1): binds
B3			0.2 nM	2	
B4			0.27 nM	2	
